Relative cleavage rate constant (fold kcomp vs (AA)2), binding signal (fold kcomp vs (AA)3) and binding signal (fold kcomp vs (AA)4) data for three sequences are collected here from patent publication US5593834.

The series concerns AluI restriction endonuclease. The series is described as follows: cleavage_in_vitro.
Where [1] appears, read: 8 mM MgCl2, 2 mM CaCl2, 10 mM Tris pH 7.5.

“ATATAGCTATAT (double strand) [(AT)2 12-mer]” came in with a relative cleavage rate constant (fold kcomp vs (AA)2) (fastest substrate, 8 mM MgCl2, 2 mM CaCl2, 10 mM Tris pH 7.5, 16% glycerol) of 3.02. As to “ATATATAGCTATATAT (double strand) [(AT)3 16-mer]”, the binding signal (fold kcomp vs (AA)3) under setting [1] was found to be 2.95. For the sequence “ATATATATAGCTATATATAT (double strand) [(AT)4 20-mer]”, the binding signal (fold kcomp vs (AA)4) under setting [1] stood at 3.
